Measured values from article PMC7438327 (Cell Death & Disease, 2020).

T1: oligomycin sensitivity-conferring protein (OSCP) tagged with Clover GFP (UniProt P48047 24-213)
T1 construct: OSCP subunit of the mitochondrial ATP synthase; One vector carries OSCP-Clover and, downstream of an IRES, CypD-Scarlet; also called OSCP-Clover; OSCP subunit of the ATP synthase; source: HEK cells, transfected, in cells
T1 sequence (looked up): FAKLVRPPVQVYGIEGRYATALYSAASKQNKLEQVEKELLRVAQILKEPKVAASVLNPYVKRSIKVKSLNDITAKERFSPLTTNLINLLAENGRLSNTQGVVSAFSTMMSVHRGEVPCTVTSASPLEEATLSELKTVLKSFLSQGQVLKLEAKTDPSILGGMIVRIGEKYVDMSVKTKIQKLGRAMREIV

T2: oligomycin sensitivity-conferring protein (OSCP), endogenous in HEK cells (human (endogenous in HEK), UniProt P48047 24-213)
T2 construct: OSCP subunit of the mitochondrial ATP synthase, immunoprecipitated or stained in HEK cell lines; also called OSCP subunit of the ATP synthase; source: endogenous, HEK CypD mutant cell lines
T2 sequence (looked up): T1 sequence (looked up)

B1: cyclophilin D (CypD) WT tagged with Scarlet (natural protein)
chain: not shown
notes: also called PPIF; source: HEK cells, transfected, in cells
B2: cyclophilin D (CypD) phosphoresistant S191A mutant tagged with Scarlet (natural protein)
chain: not shown
notes: source: HEK cells, transfected, in cells
B3: cyclophilin D (CypD) phosphomimetic S191E mutant tagged with Scarlet (natural protein)
chain: not shown
notes: also called phosphomimetic mutant S191E; source: HEK cells, transfected, in cells
B4: cyclophilin D (CypD) WT, rescued in HEK CypD-KO cells (natural protein)
chain: not shown
notes: also called WT group; source: HEK CypD-KO cells (CRISPR/Cas9) rescued with WT CypD, in cells or lysate
B5: cyclophilin D (CypD) phosphoresistant S191A mutant, rescued in HEK CypD-KO cells (natural protein)
chain: not shown
notes: also called phosphoresistant S191A group; source: HEK CypD-KO cells (CRISPR/Cas9) rescued with mutated CypD, in cells or lysate
B6: cyclophilin D (CypD) phosphomimetic S191E mutant, rescued in HEK CypD-KO cells (natural protein)
chain: not shown
notes: also called phosphomimetic S191E group; source: HEK CypD-KO cells (CRISPR/Cas9) rescued with mutated CypD, in cells or lysate

Target: T1, oligomycin sensitivity-conferring …
Assay: FRET or BRET; HEK cells transfected with OSCP-Clover and WT or mutant CypD-Scarlet downstream of an IRES; excitation 458 nm, emission 505-540 nm and 575-620 nm; FRET ratio
Details: partners not purified

| FRET ratio | Binder |
| --- | --- |
| 1.92 | B1 |
| 1.29 | B2 |
| 2.44 | B3 |

Target: T2, oligomycin sensitivity-conferring …
Assay: co-IP; OSCP immunoprecipitation in HEK CypD mutant cell lines, immunoblots of CypD and OSCP; quantified as fold vs. WT
Details: partners not purified

| CypD co-immunoprecipitated with OSCP, fold vs. WT | Binder |
| --- | --- |
| 1 fold vs. WT | B4 |
| 0.65 fold vs. WT | B5 |
| 1.48 fold vs. WT | B6 |
